Test results published in the RNAGym collection of RNA variant scans (doi:10.1073/pnas.2313332121).

B1: TPR t1 (parent)
chain: GACCAAUCUGCCCUCAGAGCUCGAGAACAUCUUCGGAUGCAGAGGAGGCAGGCUUCGGUGGCGCGAUAGCGCCAACGUCCUCAACCUCCAAUGCAUCCCACCACAUGAUGAUGCCUGAAGAGCCUUGGUUUUUUG

Variants of: B1
Assay: polymerase ribozyme fitness, log enrichment relative to wild type (log ratio); higher = more active; in vitro selection for triplet polymerase activity
Procedure, shortened: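 Fitness measures genotype enrichment against wild-type enrichment on a logarithmic scale, with inverse-variance-weighted averaging of replicates. The logarithm is base 2, and genotypes were kept only with ≥10 input reads and ≥1 read per output in Illumina sequencing. The sequenced libraries came from one triplicate in vitro selection round, including frozen incubation at −7 °C, of PCR-built, transcribed mutant libraries of each subunit of a heterodimeric triplet polymerase ribozyme.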

Variant | polymerase ribozyme fitness (log ratio)
C11U C53U C94G C123G | -1.5
C12G A46G G48A C79A | -2.27
C11U U14C U38G | -4.03
C11U U106C | -0.678
C12A G17A A111U U116C | -6.09
C12A C70G | -2.78
C12A C70U | -0.454
C12G C70G C85A | -3.7
C12G G42C C70A U78A A91U | -5.9
C12A A16U C56A | -3.74
C12G C56U | -0.0119
C11U C88G C114A U126A | -5.99
C12G U96A | -0.352
C11U C79G | -1.69
C11U C34A | -2.54
C12A G69A A100C A121C | -3.75
C12A C64U A90C | -2.08
C12A G120U | 1.57
C11U C34G C89U A105C U106A | -4.08
C12G C13A A24G U106G C124A | -1.63
C12A C40A | -2.34
C12G G69C C72U A90U U116G | -6.29
C12A A46U C72G C114U | -4.57
C12G G63U A66G U109A A119U G127U | -5.43

Variant | polymerase ribozyme fitness (log ratio)
C12A G17U C20A G42A G45U A90G C123A | -4.53
C11U G122A | -1.12
C11U C102U | -2.09
C12A A37G U132A | -1.37
C12U A16C G42U U78A A121C | -0.175
C12A G57U C72U | -0.582
C12A C49U G69U U109A U116A C123G | -5.67
C12G C88G | -0.624
C12G G58A G61A C62U C124G | 0.824
C12G C22U | -3.18
C12G G36C A66U C85U C86A | -3.38
C12G G48A G93A | -1.44
C11U C22G C31A C72G C99U C123A | -5.82
C11U C86A C104U | -1.37
C12A A46U C49U A95G C99U A111G U116A | -6.56
C12A G122A | -0.788
C12G C56U A100C G117U | -3.6
C11U U21A A27G C70G A105G | -5.92
C12A G69C | -2.39
C11U C72U A83U C101G | -1.79
C11U U21A A27G A105G | -4.61
C12U A16U C22G U38G G52C A111U | -3.72
C12A A18G C40U | -4.84
C12A A75U A111C | 0.286

Variant | polymerase ribozyme fitness (log ratio)
C12G C64A | -6.46
C12A C88U G110C | -4.61
C11U G36A G63U | -2.37
C12G A41U G44C C64U C82G G113U | -5.32
C12A A24C C97U | -7.95
C11U U55A C80A C86G C124G | -4.52
C11U G71A | -1.53
C12G C124G | 0.742
C12G G48C G135U | -1.51
C12A G128U | -2.12
C12A G128C | -2.18
C12A C20A G113U C115U U131A | -3.38
C11U C70A | -0.922
C12G G45C U55C C72U C85A U96A | -4.29
C12A C73A | 1.15
C12G A74U C80U | -1.1
C12A G45U G51C G52U U59C C123G | -5.71
C11U C89A | -2.85
C11U U78C U106G | -2.03
C12A A18C G77C A121U | -0.381
C12G C53U G93C | -0.482
C12G U14A A26U C72U A90G C123A | -2.58
C12A G58A G61C C79U C82A A83C C114U | -5.31
C12A G44A A46G G48U | -3.1

Variant | polymerase ribozyme fitness (log ratio)
C12G C40U | -1.51
C12G G48U C62U | -1
C11U G52U C70A | -1.84
C11U G63C C80U | -2.73
C11U C56A C123U | 1.37
C11U C40U G122A | 0.00533
C12G C64A U133A | -5.1
C12G C86G C89G C104U | -1.35
C12A G117C A121C U132A | -5.13
C11U C56G U112G | -0.0117
C11U U78A C97A | -5.69
C12A U92A | -3.47
C12U A16U A66C A105C C124G | -5.31
C12G A37C G60C A83U A91C G120U | -0.68
C12G U14C G45A A68G U106A | -4.06
C12G G47U | -1.82
C11U G63A C72A | -7.14
C12U A26C G45C G61C A75C C82A | -6.28
C12G C76U | -0.0382
C12A A100C A121C | 1.43
C12A G63U C70G C89A A90U A100U A121G | -1.48
C12A A41U A43U C104U U129G | -4.67
C12A C20A G63A U87A G122U | -4.81
C12A G17U A46G C80G A84G C115A | -4.53

Variant | polymerase ribozyme fitness (log ratio)
C11U G39U | -1.37
C11U U59C G93A | -1.49
C12G C94G | -1.02
C12A U14G G17A C20A C94A | -3.13
C12A G17U U96A G120U | -1.6
C12A G63C A111U | -4.83
C12G C34U | -3.31
C12G C34A | -2.33
C12A C15A A43G A50U G61U | -6.06
C11U G44A C79U A119U | -1.69
C12U A16C U59A U92C C124A | 0.146
C12A C20G A83G C85U A95G | -5.21
C11U G52A C80U | -2.45
C12A C22A A26C G120U | -4.36
C12A C62A | -1.05
C12A G60C U106G | -2.28
C12A C53U U78A U81G | -2.32
C12A A26U A41C C82A A95G C101A G120A G127A | -5.86
C12G G93A | -0.233
C12G G61C C104U C115G U133C | -5.69
C11U U54A | -0.542
C11U C123U | 1.77
C12G G61U G120U | 2.2
C12U A26G C56U G69U G117A U125G | -4.97

Variant | polymerase ribozyme fitness (log ratio)
C11U G45C | -1.59
C11U G48U G113A | -2.84
C12A G19C C85U A91U G122U | -3.66
C12G A43U A75U C124G | 0.348
C12A A24G A41C A43C A46G C53G | -4.67
C12G G36A C94A | -3.18
C12A C15G C101U | -3.16
C12G A26U C114A | -6.59
C11U G36U | -1.77
C12G C40G G63A | -1.01
C11U G35U G39U C56A G71U G122A | -6.34
C12G A75U C94G | -1.33
C12G C98U U133G | -1.82
C12G C98A | -4.17
C12A G71U | -0.821
C11U G42C | -2.01
C12G C15U G61A | -0.982
C12G G69U C115A | 0.211
C12G A119U | 0.00185
C12G G93U U112A | 0.281
C12A A26U G61A U131G | -4.35
C12A C40U A91C | -3.09
C11U C53A C97U | -1.37
C12A G110A | -1.57

Variant | polymerase ribozyme fitness (log ratio)
C12A A26G A121C | -1.17
C11U G23A G110C U130G | -6.32
C12G A41C | -0.0245
C12A C22G A27U | -4.16
C11U C98U | -1.79
C12G A43U | -0.979
C12G A27G G39C | -3.18
C11U C97A | -4.6
C11U G39U C79U G93U | -2.7
C12A U54A C80G | -4.17
C12A C82A | -0.699
C12A C40U C82G U96C C97U | -6.18
C12G G120A | 1.87
C12A C15U G69A G93U U109G | -6.39
C12A G17C G48C | -6.47
C11U G44C C104U U116C | -3.59
C12G G65C U67G A95G A108U A119U C123U | -5.89
C12G G51A | -2.1
C11U G77U U112C | 1.4
C12A C15A | -3.39
C12U A18U A108U C114U A121C U129C | -6.88
C12A A37U A105G G122A | -3.74
C12G C40G G45A C56U | -1.34
